Data reported in patent US20220227874A1, “CHIMERIC ANTIGEN RECEPTORS TARGETING EPIDERMAL GROWTH FACTOR RECEPTOR VARIANT III” (published 2022).
Changes are numbered by the printed parent chain.

B1: 20G5 (antibody, V domains shown)
VH: EVQLVESGGDLVKPGGSLRLSCAASGFTFTNAWMSWVRQAPGKGLEWVGRIKSKIDGGTTDYAAPVKGRFIISRDDSKNTLSLQMNSLKTEDTAMYYCTTAPGGPFDYWGQGSLVTVSS
VL: DIVLTQSPLSLPVTPGEPASISCRSSQSLLYSDRRNYLDWFLQKPGQSPHLLIYLGSYRASGVPDRFSGSGSGTDFTLKISRVEAEDVGVYYCMQALQIPITFGQGTRLEIK
B2: 26B9 (antibody, V domains shown)
VH: EVQLVESWGVLVKPGGSLRLSCAASGFIFNNAWMSWVRQAPGKGLEWIGRIKSKSDGGTTDYAAPVKDRFTISRDDSKDTLYLQMNGLKTEDTAVYFCTTAPGGPFDYWGQGTLVTVSS
VL: B1 VL with Y31H, S32R, R34G, R35F, H50Q, G56A, Y58S, G71D, I99T
B3: 30D8 (antibody, V domains shown)
VH: EVQLVESGGGLVKPGGSLRLSCEASGFTFSDAWMSWVRQAPGKGLEWVGRIKSKTDGGTTDYVVPLNGRFIISRDDSRNTLYLQLNNLKTEDTAVYYCTTVPGSYGYWGQGTLVTVSS
VL: DIVMTQSPLSLPVTPGEPASISCRSSQSLLHNKRNNYLDWFLQKPGQSPQLLIYLASNRASGVPDRFSGGGSGTDFTLKISRVEAEDVGVYYCMQAQQTPITFGQGTRLEIK
B4: 20E12 (antibody, V domains shown)
VH: EVNLVESGGGLVKPGGSLRLSCEASGFTFSYAWMSWVRQAPGKGLEWVGRIKSIADGGATDYAAPVRNRFTISRDDSRNTLYLEMHSLKTEDTAVYYCTTIPGNDAFDMWGQGTMVTVSS
VL: DIVLTQSPLSLSVTPGEPASISCRSSQSLLYSNGKNYLDWFLHKPGQSPQLLIYLGSNRASGVPDRFSGSGSGIDFILKISRVEAEDVGVYYCMQAQQTPITFGQGTRLEIK
B5: 32G8 (antibody, V domains shown)
VH: B4 VH with A55T, A59V, T60I, F70C, A106D, T114R
VL: B4 VL
B6: 34E7 (antibody, V domains shown)
VH: B4 VH with A55N, A64S, T80M, M115L
VL: B4 VL with S26T, Y54F, N58I
B7: 20B9 (antibody, V domains shown)
VH: QVTLKESGPVLVKPTETLTLTCTVSGFSLSNARMGVSWIRQPPGKALEWLGHIFSTDEKSYSTSLRGRITISKDTSRGLVVLTLTNMDPVDTATYYCARDSSNYEGYFDFWGPGFLVTVSS
VL: EIVMTQSPATLSVSPGERATLSCRVSQSIGANLAWYQQKFGQAPRLLIYGASTRATGIPVRFSGGGSGTEFTLTISSLQSEDFAIYSCQQYIYWPFTFGPGTTVDIK
B8: 11F10 (antibody, V domains shown)
VH: QVTLKESGPVLVKPIETLTLTCTVCGFSLSNPRMGVSWIRQPPGKALEWLGHIFSSDEKSYRLFLRSRLSISKDTSKSQVVLTMTNMDPVDTATYYCARDSSDYEGYFDYWGQGTLVTVSS
VL: EIVMTQSPATLSVSPGERTTLSCRASQSVGSNLAWYQQKPGQAPRLLIYGASTRASGVPARFSGSGSGTEFTLTISSLQSEDFAVYSCQEYNNWPFTFGQGTKVEIK
B9: 32A10 (antibody, V domains shown)
VH: QVTLKESGPVLVKPTETLTLTCTVSGFSLSNARMGVSWIRQPPGKALEWLAHIFSTDEKSIRRSLRSRLTLSKDTSKSQVVLTMTNMDPVDTATYFCARDSSNYEGYFDYWGQGTLVTVSS
VL: EVVMTQSPATLSVSPGERVTLSCRASQSVSSNFAWYQQRPGQAPRLLLYGATTRATGLPGRFSGSGSGTENILTISSLQSEDFAIYFCQQYKDWPFTFGPGSKVDIK
B10: 21E7 (antibody, V domains shown)
VH: B9 VH with K5E, L47P, L50F, I61L, R63L, F96Y
VL: DVVLTQSPATLSVSPGERATLSCRASQSVNSNLAWYQQNPGQAPRLLIFGSSTRATGIPASFSGSGSGTEFTLTINSLQSEHSAVYYCQQYNDWPFTFGPGTKVDIK
B11: 12B2 (antibody, V domains shown)
VH: B8 VH with I15T, C25S, F64S, A98V, D103N, E105G
VL: EVVMTQSPATLSVSPGERATLSCRASQSVINNLAWYQQKPGQAPRLLIYGTSTRATDIPARFSGSGSGTEFTLTISSLQSEDFAVYYCQDYNNWPFTFGPGTKVDIK
B12: 11B11 (antibody, V domains shown)
VH: B9 VH with R33K, L71M, F96Y, A98V
VL: B9 VL with V3L, V19A, S31T, Y49F, T52S, L58I, D105E
B13: 42G9 (antibody, V domains shown)
VH: B9 VH with V12L, A32P, L50F, I61L, R62K, R63L, D88A, T92S, F96Y, Y110F
VL: EVVLTQSPATLSVSPGERATLSCRASQSVRSNLAWYQQKSGQAPRLLIYGSTIRATGVPARFSGSGSGTEFTLTISSLQSEDFAVYYCQQYSDWPFTFGPGTKVDIK
B14: 19A9 (antibody, V domains shown)
VH: B9 VH with K5E, L47P, L50F, I61L, R63L, F96Y
VL: B10 VL with D1E, L4M, S31R, N39K, S51T, S61R, N76D, A84G, V85L
B15: 29D5 (antibody, V domains shown)
VH: B9 VH with A32P, I39L, L50F, I61Y, R62S, R63P, S67G, L71V, M84L, F96Y
VL: KIVMTQSPATLSVSPGERATLSCRANQIVSSNLAWYQQKPGQAPRLLVFGTSTRATGIPIRFSGSGSGTEFTLTVSSLQSEDFAVYVCQQYNDWPFTFGPGTKVDIK
B16: 12H6 (antibody, V domains shown)
VH: B9 VH with F96Y
VL: B9 VL with V19A, S28G, A43S, T52S, L58V
B17: 49B11 (antibody, V domains shown)
VH: B9 VH with A32V, L50F, T56S, F96Y
VL: EMEVTQSPATLSVSPGERATLSCRASQNIGSDLAWYQQQSGQAPRLLISGASTRATGVPTRFSGSGSGTDFTLTITSLQSEDFAVYYCQQYNDWPFTFGPGTKVDIK
B18: 14C11 (antibody, V domains shown)
VH: B9 VH with S30N, L50F, I61F, R63T, F96Y, T115I
VL: EIVMTQSPATLSVSPGERATLSCRASQSVSNNLAWYQQKPGQAPRLLIYGASTRATGVPARFSGSDSGTEFSLTISSLQSEDFAVYFCQQYKDWPFTFGPGTKVEIK
B19: 21E11 (antibody, V domains shown)
VH: B9 VH with A32V, L50F, T56S, F96Y, Y110F
VL: B17 VL with E1D, E3V, N28S, I29V, Q39P, S40P, A43S, S49Y, T60A, Q79E
B20: 46E10 (antibody, V domains shown)
VH: B9 VH with T83I, F96Y
VL: B9 VL with A9P, T10N, V19A, S30T, A43S, T52S, L58V, I85V

The binders below were run against T1, EGFRvIII expressed on cells (F98-npEGFRvIII, NCI-H522-EGFRvIII, U87-KO-EGFRvIII) (human) (assay: flow cytometry, F98-EGFRvIII cells; 2nd Ab only 1.3).

Binder | % positive [%]
B1 | 98.5
B2 | 98.6
B3 | 98.6
B4 | 97.9
B5 | 98.6
B6 | 98.5

The binders below were run against T1, EGFRvIII expressed on cells … (assay: flow cytometry, F98-EGFRvIII cells; 2nd Ab only 2.3).

Binder | % positive [%]
B7 | 98.3
B8 | 98
B9 | 98.3
B10 | 98.5
B11 | 97.9
B12 | 98.2
B13 | 98.5
B14 | 98.1
B15 | 97.9
B16 | 98.3
B17 | 98.5
B18 | 98.2
B19 | 98.5
B20 | 98.7

The binders below were run against T1, EGFRvIII expressed on cells … (assay: flow cytometry, F98-EGFRvIII cells; 2nd Ab only 258).

Binder | MFI
B7 | 3420
B8 | 3280
B9 | 3350
B10 | 3100
B11 | 2750
B12 | 3390
B13 | 3250
B14 | 3100
B15 | 2830
B16 | 3440
B17 | 2980
B18 | 3210
B19 | 3100
B20 | 2990

Each binder was assayed against T1, EGFRvIII expressed on cells … (assay: flow cytometry, EGFRvIII expressing cell line against non-expressing cell lines).

Binder | fold MFI over non-expressing cell lines [fold]
B7 | ≥ 10
B2 | ≥ 10
B8 | ≥ 10
B9 | ≥ 10
B10 | ≥ 10
B11 | ≥ 10
B12 | ≥ 10
B13 | ≥ 10
B14 | ≥ 10
B15 | ≥ 10
B16 | ≥ 10
B17 | ≥ 10
B18 | ≥ 10
B19 | ≥ 10
B20 | ≥ 10
B3 | ≥ 10
B4 | ≥ 10
B5 | ≥ 10
B6 | ≥ 10

What follows are binders tested against T1, EGFRvIII expressed on cells … (assay: flow cytometry, F98-EGFRvIII cells; 2nd Ab only 322).

Binder | MFI
B1 | 4640
B2 | 5400
B3 | 5160
B4 | 3980
B5 | 3730
B6 | 4130
